Measurements from patent US20220356230A1.

Key:
Experiment in all cases: Luminex bead assay, antibody supernatant on modified RBD.mmH microspheres
[1] = target: MOD12 - SARS-CoV-2 Spike Protein (RBD)(R319-F541).mmH (SARS-CoV-2)
[2] = target: MOD15 - SARS-CoV-2 Spike Protein (RBD)(R319-F541).mmH (SARS-CoV-2)
[3] = target: MOD14 - SARS-CoV-2 Spike Protein (RBD)(R319-F541).mmH (SARS-CoV-2)
[4] = target: MOD8 - SARS-CoV-2 Spike Protein (RBD)(R319-F541).mmH (SARS-CoV-2)
[5] = target: MOD13 - SARS-CoV-2 Spike Protein (RBD)(R319-F541).mmH (SARS-CoV-2)
[6] = target: MOD9 - SARS-CoV-2 Spike Protein (RBD)(R319-F541).mmH (SARS-CoV-2)
[7] = target: MOD11 - SARS-CoV-2 Spike Protein (RBD)(R319-F541).mmH (SARS-CoV-2)
[8] = target: MOD10 - SARS-CoV-2 Spike Protein (RBD)(R319-F541).mmH (SARS-CoV-2)

mAb10936 (antibody)
Binding signal (MFI) [1]: 31700 MFI
Binding signal (MFI) [2]: 21700 MFI
Binding signal (MFI) [3]: 28500 MFI
Binding signal (MFI) [4]: 2920 MFI
Binding signal (MFI) [5]: 29200 MFI
Binding signal (MFI) [6]: 29100 MFI
Binding signal (MFI) [7]: 30800 MFI
Binding signal (MFI) [8]: 28800 MFI
